Molecular target: the molecule itself
Experiment: AFM + dynamic light scattering; fibril dimensions from AFM images (2 nm height, 15 nm diameter, average length 350 nm) and the RH of the monomer from DLS; geometrical calculation

B1: rGad m 1 wt (recombinant Gad m 1, Atlantic cod beta-parvalbumin) (natural protein, UniProt A5I874 1-109, looked up)
chain: MAFAGILNDADITAALAACKAEGSFDHKAFFTKVGLAAKSSADIKKVFEIIDQDKSDFVEEDELKLFLQNFSAGARALSDAETKVFLKAGDSDGDGKIGVDEFGAMIKA
notes: Gad m 1, Atlantic cod beta-parvalbumin; synthetic ORF in pET15b; Monomer in Ca2+, forms amyloids in EDTA; also called rGad wt; not shown: 6XHis, N-terminal, kept
stoichiometry N: 370
